# Experimental data: patent US20160289285A1 (Molecular Partners, published 2016)
# Where a chain is given by its changes, count along the chain named.
# B1: Protein #51 (designed binder)
# chain: MRGSHHHHHHGSDLGKKLLEAARAGQDDEVRILMANGADVNAKDYFSHTPLHLAARNGHLKIVEVLLKAGADVNAKDFAGKTPLHLAANDGHLEIVEVLLKHGADVNAQDIFGKTPADIAADAGHEDIAEVLQKAA
# B2: Protein #48 (designed binder)
# chain: B1 chain with M34L, A35K, N36A, H102A
# B3: Protein #44 (designed binder)
# chain: B1 chain with G15D, K61E
# B4: Protein #43 (designed binder)
# chain: MRGSHHHHHHGSDLGKKLLEAARAGQDDEVRILMANGADVNAADYFSHTPLHLAARDGHLKIVEVLLKYGADVNASDFAGKTPLHLAANDGHLEIVEVLLKHGADVNAQDIFGKTAFDISIDNGNEDLAEILQKAA
# B5: Protein #50 (designed binder)
# chain: B1 chain with I32E, M34L, A35K, N36A, D90E, H102A
# B6: Protein #45 (designed binder)
# chain: B1 chain with K61E
# B7: Protein #49 (designed binder)
# chain: B1 chain with I32E, M34L, A35K, N36A, H102A
# B8: Protein #46 (designed binder)
# chain: B1 chain with M34L, N36A
# B9: Protein #47 (designed binder)
# chain: B1 chain with G15D
# B10: Protein #52 (designed binder)
# chain: MRGSHHHHHHGSDLDKKLLEAARAGQDDEVRILMANGADVNAKDERGTTPLHLAAVYGHLEIVEVLLKAGADVNAKNETGYTPLHLADSSGHLEIVEVLLKHSADVNAQDKSGKTPADLAADAGHEDIAEVLQKAA
# B11: Protein #56 (designed binder)
# chain: B10 chain with H102A
# B12: Protein #55 (designed binder)
# chain: B10 chain with S103G
# B13: Protein #54 (designed binder)
# chain: B10 chain with H102A, S103G
# B14: Protein #40 (designed binder)
# chain: B4 chain with N36S, N74D, G103D, I111K
# B15: Protein #42 (designed binder)
# chain: B4 chain with S47G, I111K
# B16: Protein #41 (designed binder)
# chain: B4 chain with K17E, S47G, D57N, D118E
# B17: Protein #53 (designed binder)
# chain: MRGSHHHHHHGSDLGKKLLEAARAGQDDEVRFLMANGADVNAADERGTTPLHLAAVYGHLEIVEVLLKNGADVNAQNETGYTPLHLADSSGHLEIVEVLLKHSADVNAQDKFGKTAFDISIDNGNEDLAEILQKAA
# B18: Protein #57 (designed binder)
# chain: MRGSHHHHHHGSDLGKKLLEAARAGQDDEVRILMANGADVNAKDYFSHTPLHLAARNGHLKIVEVLLKAGADVNAKDFAGKTPLHLAANDGHLEIVEVLLKHGADVNAQDIFGKTPADIAADAGHEDIAEVLQKLGSPTPTPTTPTPTPTTPTPTPTGSRSDLDITGLKLN
# Target: T1, human serum albumin (human, UniProt P02768 25-609)
# T1 construct: For SEC-MALS purified from CSL Behring 20% solution; also called HSA; SA (human)
# Test: SPR (ProteOn)
# Description: SPR was measured using a ProteOn instrument (BioRad) and measurement was performed according standard procedures known to the person skilled in the art.
# T1 sequence (P02768 25-609 limits assumed): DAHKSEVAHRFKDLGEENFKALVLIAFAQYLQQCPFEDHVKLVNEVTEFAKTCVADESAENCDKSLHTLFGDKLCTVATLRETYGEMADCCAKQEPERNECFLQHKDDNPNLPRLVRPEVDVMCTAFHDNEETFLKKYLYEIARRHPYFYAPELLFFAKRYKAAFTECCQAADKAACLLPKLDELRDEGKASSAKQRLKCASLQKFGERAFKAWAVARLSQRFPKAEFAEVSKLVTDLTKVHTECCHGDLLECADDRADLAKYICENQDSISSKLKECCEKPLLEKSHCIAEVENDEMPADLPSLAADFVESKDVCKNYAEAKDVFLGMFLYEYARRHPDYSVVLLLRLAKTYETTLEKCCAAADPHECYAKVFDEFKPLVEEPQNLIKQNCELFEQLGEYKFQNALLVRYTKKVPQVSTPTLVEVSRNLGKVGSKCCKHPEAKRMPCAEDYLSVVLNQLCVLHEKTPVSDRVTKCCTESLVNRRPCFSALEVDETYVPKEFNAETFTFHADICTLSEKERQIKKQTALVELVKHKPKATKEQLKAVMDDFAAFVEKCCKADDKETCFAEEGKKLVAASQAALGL
Binder,Kd [nM],binding result
B1,14,–
B2,20,–
B3,26,–
B4,–,binds
B5,27,–
B6,13,–
B7,15,–
B8,22,–
B9,27,–
B10,6,–
B11,–,binds
B12,15,–
B13,11,–
B14,–,binds
B15,–,binds
B16,–,binds
B17,–,binds
B18,–,binds
